Reference: patent US20060211042A1 (Johns Hopkins, published 2006)

Target: T1, rEAAT3/EAAC1 (rat excitatory amino acid transporter 3), full length, expressed in HEK 293T cells (rat, UniProt P51907 1-523)
T1 sequence (looked up): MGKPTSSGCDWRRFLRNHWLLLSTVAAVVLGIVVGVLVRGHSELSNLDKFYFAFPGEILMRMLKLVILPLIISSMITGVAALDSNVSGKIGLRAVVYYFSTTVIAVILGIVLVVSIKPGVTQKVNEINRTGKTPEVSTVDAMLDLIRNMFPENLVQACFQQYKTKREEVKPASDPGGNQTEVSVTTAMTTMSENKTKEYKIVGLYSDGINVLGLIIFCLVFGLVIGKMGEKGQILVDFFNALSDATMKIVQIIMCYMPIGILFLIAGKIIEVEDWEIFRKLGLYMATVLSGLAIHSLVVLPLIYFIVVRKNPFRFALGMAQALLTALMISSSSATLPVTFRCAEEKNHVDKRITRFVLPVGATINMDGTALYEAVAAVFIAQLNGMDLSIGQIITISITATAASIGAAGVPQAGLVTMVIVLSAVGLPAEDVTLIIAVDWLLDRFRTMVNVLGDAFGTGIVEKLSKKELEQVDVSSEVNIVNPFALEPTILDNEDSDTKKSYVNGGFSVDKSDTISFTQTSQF
Test: cell-based or functional assay

decrease in Na+-dependent L-[3H]-glutamate uptake in HEK 293T cells, co-transfection at equal ratio: ~20%
B1: GTRAP3-18 (Glutamate Transporter Associated Protein of EAAT3), HA-tagged, expressed in HEK 293T cells (other, not shown: small tags and cut ends)
chain: MDVNLAPLRAWDDFFPGSDRFARPDFRDISKWNNRVVSNLLYYQTNYLVVAAMMISVVGFLSPFNMILGGIIVVLVFTGFVWAAHNKDILRRMKKQYPTAFVMVVMLASYFLISMFGGVMVFVFGITFPLLLMFIHASLRLRNLKNKLENKMEGIGLKKTPMGIILDALEQQEDSINKFADYISKARE
